Columns and labels:
[1] = molecular target: T1, mouse PD-L1-Fc tagged recombinant antigen (R&D systems) (mouse, UniProt Q9EP73 19-238); assay: Biacore single cycle kinetics, mouse PD-L1-Fc captured on Protein A chip
T1 construct: Captured on a Protein A chip; not shown: Fc part of the bought protein, not described
Protocol: (§1) Aantigen was captured using a Protein A chip (GE Healthcare) and the AFFIMER® ILF format was run as an analyte using single cycle kinetics titrating from a maximum concentration of 1 nM, and regenerating using 10 mM glycine pH 1.5 (GE Healthcare).

[2] = molecular target: T1, mouse PD-L1-Fc tagged recombinant …; assay: SPR (Biacore), mouse PD-L1-Fc captured on Protein A chip, single cycle kinetics
Protocol: as §1

mPD-L1 = molecular target: T2, mPD-L1 (mouse, UniProt Q9EP73 19-238, limits assumed); assay: competition ELISA: mPD-L1 pre-incubated with the AFFIMER polypeptide and added to coated mPD-1; blocked ligand mPD-1
T2 construct: May be the same reagent as the mouse PD-L1-Fc of the Biacore run
T2 sequence (Q9EP73 19-238 limits assumed): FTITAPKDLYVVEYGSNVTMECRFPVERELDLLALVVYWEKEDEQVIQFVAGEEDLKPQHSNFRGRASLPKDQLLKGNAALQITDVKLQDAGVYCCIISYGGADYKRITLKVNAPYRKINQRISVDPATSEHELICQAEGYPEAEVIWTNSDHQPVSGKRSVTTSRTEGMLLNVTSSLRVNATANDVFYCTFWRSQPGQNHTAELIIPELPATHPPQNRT
Protocol: (§2) Briefly, PD-1 was coated overnight on the plate at 1 μg/ml in carbonate buffer. Then plates were saturated using 5% Casein/PBS buffer. […] After saturation, the mix was added to the plates and incubated for 90 minutes. Plates were then washed and the detection polyclonal antibody, biotinylated anti-PD-L1, was added. After washing the plates, streptavidin-HRP was added for 30 minutes. After a final wash, development of the reaction was performed using TMB (Pierce) and the plates were read using a plate reader at 450 nm (FIG. 26C).

mouse serum albumin [3] = molecular target: T3, mouse serum albumin (mouse, UniProt P07724 25-608); assay: binding ELISA on coated MSA, panel title 'Affimer binding to MSA, pH 7' (legend: pH 7.4)
T3 construct: also called MSA
T3 sequence (P07724 25-608 limits assumed): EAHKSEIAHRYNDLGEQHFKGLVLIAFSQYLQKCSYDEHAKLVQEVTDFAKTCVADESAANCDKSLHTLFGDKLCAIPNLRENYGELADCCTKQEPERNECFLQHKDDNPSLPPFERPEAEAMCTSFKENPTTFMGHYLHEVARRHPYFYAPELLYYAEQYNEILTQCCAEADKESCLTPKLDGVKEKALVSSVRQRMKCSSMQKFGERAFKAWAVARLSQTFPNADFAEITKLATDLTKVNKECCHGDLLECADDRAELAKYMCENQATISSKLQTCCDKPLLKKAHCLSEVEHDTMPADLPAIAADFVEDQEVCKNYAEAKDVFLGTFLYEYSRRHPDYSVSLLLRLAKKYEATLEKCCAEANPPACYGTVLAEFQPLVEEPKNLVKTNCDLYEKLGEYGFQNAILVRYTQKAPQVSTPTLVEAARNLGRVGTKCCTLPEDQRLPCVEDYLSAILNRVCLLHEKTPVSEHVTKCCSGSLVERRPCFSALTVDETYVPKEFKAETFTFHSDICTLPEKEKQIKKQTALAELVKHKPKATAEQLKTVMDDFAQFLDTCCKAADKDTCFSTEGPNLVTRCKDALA
Protocol: (§3) Human (Sigma-Aldrich); Cynomolgus and Mouse (Abcam); Equine (Abcam); Canine (Abcam); Mouse (Sigma-Aldrich); Rabbit (Sigma-Aldrich); Porcine (Sigma-Aldrich);, and Rat (Sigma-Aldrich) serum albumin were coated overnight on 96 well plates (Corning Costar) at 1 μg/ml in PBS at the appropriate pH (pH 6.0 or 7.4). Plates were saturated using 5% Casein (Sigma-Aldrich) buffer in PBS. […] Plates were then washed and AFFIMER® proteins were detected using a biotinylated polyclonal antibody anti-Cystatin (R&D System) for 90 minutes. After washing, streptavidin-HRP (Thermo Fisher Scientific) was added and incubated for 30 minutes.
as §2

cynomolgus serum albumin [4] = molecular target: T4, cynomolgus serum albumin (cynomolgus); assay: Octet biolayer interferometry, biotinylated albumin on SA sensors, pH 6.0
T4 construct: also called CSA; cyno serum albumin
T4 sequence (A2V9Z4 25-608): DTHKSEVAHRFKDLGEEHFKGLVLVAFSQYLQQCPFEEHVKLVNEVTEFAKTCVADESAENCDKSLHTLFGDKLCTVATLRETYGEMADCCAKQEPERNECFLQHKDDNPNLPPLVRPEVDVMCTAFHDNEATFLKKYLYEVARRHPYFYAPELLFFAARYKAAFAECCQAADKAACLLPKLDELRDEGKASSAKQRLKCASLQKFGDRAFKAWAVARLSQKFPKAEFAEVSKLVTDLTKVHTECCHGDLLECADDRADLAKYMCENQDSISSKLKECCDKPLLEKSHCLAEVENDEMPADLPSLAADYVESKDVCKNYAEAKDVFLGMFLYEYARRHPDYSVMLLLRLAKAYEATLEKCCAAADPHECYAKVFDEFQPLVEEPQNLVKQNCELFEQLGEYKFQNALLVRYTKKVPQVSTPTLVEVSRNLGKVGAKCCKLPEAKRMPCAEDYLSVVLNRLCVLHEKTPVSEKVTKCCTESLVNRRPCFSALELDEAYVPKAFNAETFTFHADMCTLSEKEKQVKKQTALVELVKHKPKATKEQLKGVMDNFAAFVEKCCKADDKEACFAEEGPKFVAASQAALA
Protocol: (§4) Biotinylated antigen was captured onto SA sensors at 1 μg/ml for 600 seconds in a buffer comprising PBS-T (0.01% Tween 20)+1% casein at either pH 6.0 or 7.4. Association was carried out for 300 seconds and dissociation for 600 seconds, and regeneration was performed using 10 mM glycine pH 1.5 (GE Healthcare) for 3×5 seconds. All steps were carried out at 1000 rpm and 25° C. Purified AFFIMER® polypeptide in two-fold serial dilutions was analyzed at a starting concentration of approximately 10× K_{D value}. Kinetics analyses were carried out using the Octet data analysis software, subtracting the reference sensor (loaded with antigen), aligning the Y-axis to baseline, and using inter-step correction to align association to dissociation. Savitzky-Golay filtering was applied and the data processed. Analysis of the data was carried out with a 1:1 model, global fit, Rₘₐₓ unlinked by sensor.

human serum albumin [5] = molecular target: T5, human serum albumin (human, UniProt P02768 25-609); assay: as above
T5 construct: mature; Bought protein; biotinylated in the Octet and HTRF assays; also called HSA; HuSA
Protocol: as §4

mouse serum albumin [6] = molecular target: T3, mouse serum albumin; assay: as above
Protocol: as §4

cynomolgus serum albumin [7] = molecular target: T4, cynomolgus serum albumin; assay: BLI (Octet), biotinylated albumin on SA sensor, pH 7.4
Outline: (§5)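 SA sensor, antigen 1 μg/ml × 600 s; buffer PBS-T 0.01% Tween 20 + 1% casein, pH 6.0 or 7.4; 25° C, 1000 rpm. 1:1 global fit, Rmax unlinked.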

human serum albumin [8] = molecular target: T5, human serum albumin; assay: as above
Outline: as §5

mouse serum albumin [9] = molecular target: T3, mouse serum albumin; assay: as above
Outline: as §5

cynomolgus serum albumin [10] = molecular target: T4, cynomolgus serum albumin; assay: Octet biolayer interferometry, biotinylated albumin on SA sensors, pH 7.4
Protocol: as §4

human serum albumin [11] = molecular target: T5, human serum albumin; assay: as above
Protocol: as §4

mouse serum albumin [12] = molecular target: T3, mouse serum albumin; assay: as above
Protocol: as §4

canine serum albumin = canine serum albumin (canine, UniProt P49822 25-608); assay: binding ELISA on coated albumin, pH 6.0, panel 'Canine SA Binding at pH 6.0'
Chain of canine serum albumin (P49822 25-608 limits assumed): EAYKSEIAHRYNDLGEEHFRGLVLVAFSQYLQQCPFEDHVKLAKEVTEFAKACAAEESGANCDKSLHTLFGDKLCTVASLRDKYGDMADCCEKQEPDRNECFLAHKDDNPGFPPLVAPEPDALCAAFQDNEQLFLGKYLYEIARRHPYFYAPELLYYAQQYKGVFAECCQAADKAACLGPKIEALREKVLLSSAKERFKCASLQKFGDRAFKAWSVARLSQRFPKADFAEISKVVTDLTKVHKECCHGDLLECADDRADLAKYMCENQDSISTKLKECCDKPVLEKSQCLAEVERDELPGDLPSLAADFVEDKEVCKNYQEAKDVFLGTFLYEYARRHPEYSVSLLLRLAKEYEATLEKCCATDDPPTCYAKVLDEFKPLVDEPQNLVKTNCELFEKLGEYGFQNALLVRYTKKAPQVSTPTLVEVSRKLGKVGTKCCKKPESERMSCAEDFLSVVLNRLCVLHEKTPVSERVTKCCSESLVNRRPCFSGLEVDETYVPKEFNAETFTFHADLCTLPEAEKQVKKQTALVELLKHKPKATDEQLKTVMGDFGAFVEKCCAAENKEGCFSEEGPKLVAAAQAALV
Protocol: (§6) Briefly, ELISA was performed as follow:
as §3

recombinant FcRn = molecular target: T6, recombinant FcRn (Homo sapiens (Human), UniProt P55899 24-297; P61769 21-119, Biotinylated (site and any tag carrying the biotin are not stated); captured on a Biotin CAPture chip.); assay: Biacore, biotinylated FcRn on Biotin CAPture chip, PBS-T pH 6.0
T6 construct: Captured on a Biotin CAPture chip; also called biotinylated FcRn (Amsbio); copies: 1 + 1
T6 sequence (P55899 24-297 limits assumed, chain 1 of 2): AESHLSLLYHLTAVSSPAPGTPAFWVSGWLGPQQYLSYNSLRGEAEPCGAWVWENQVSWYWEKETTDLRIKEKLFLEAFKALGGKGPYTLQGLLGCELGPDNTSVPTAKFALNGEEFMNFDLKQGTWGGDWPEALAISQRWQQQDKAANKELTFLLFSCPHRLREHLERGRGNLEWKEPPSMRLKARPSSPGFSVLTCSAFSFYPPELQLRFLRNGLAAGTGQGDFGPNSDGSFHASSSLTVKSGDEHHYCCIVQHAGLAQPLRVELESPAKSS
T6 sequence (P61769 21-119 limits assumed, chain 2 of 2): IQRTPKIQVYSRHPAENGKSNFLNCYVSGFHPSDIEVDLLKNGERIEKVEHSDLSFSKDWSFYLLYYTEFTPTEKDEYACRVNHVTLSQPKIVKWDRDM
Protocol: FcRn Biacore binding analysis was performed using Biotin CAPture chip according to the manufacturer's protocol (GE Healthcare). Briefly, Biotin CAPture reagent was run for 300 sec at a 2 μl/min flow rate over surfaces Fc1 and Fc2 followed by the capture of biotinylated FcRn (Amsbio) at 10 μg/mL with a contact time of 50 seconds, run at 10 μl/min delivered to Fc2 only. […] Surface Fc1 and Fc2 regeneration was performed according to the manufacturer's protocol.

cynomolgus serum albumin [13] = molecular target: T4, cynomolgus serum albumin; assay: SPR (Biacore T200), albumin amine-coupled to CM5, Affimer analyte, pH 7.4
Protocol: (§7) Affinities for mouse, human, and cynomolgus serum were also measured at pH 7.4 for four (4) AFFIMER® binders using surface plasmon resonance (SPR) (FIG. 5, Table 5). […] A concentration titration of AFFIMER® monomers was run as analyte at a flow rate of 30 μl/min or 60 μl/min. Fc2-1, Fc3-1 and Fc4-1 kinetic data was blank subtracted and fit to a 1:1 Langmuir binding model (BIAcore Evalution software; GE) to calculate KD values.

human serum albumin [14] = molecular target: T5, human serum albumin; assay: as above
Protocol: as §7

mouse serum albumin [15] = molecular target: T3, mouse serum albumin; assay: as above
Protocol: as §7

rabbit serum albumin = rabbit serum albumin (rabbit, UniProt P49065 25-608); assay: binding ELISA on coated albumin, pH 7.4, panel 'Rabbit SA Binding at pH 7.4' (Table 6 gives NA for this pair)
Chain of rabbit serum albumin (P49065 25-608 limits assumed): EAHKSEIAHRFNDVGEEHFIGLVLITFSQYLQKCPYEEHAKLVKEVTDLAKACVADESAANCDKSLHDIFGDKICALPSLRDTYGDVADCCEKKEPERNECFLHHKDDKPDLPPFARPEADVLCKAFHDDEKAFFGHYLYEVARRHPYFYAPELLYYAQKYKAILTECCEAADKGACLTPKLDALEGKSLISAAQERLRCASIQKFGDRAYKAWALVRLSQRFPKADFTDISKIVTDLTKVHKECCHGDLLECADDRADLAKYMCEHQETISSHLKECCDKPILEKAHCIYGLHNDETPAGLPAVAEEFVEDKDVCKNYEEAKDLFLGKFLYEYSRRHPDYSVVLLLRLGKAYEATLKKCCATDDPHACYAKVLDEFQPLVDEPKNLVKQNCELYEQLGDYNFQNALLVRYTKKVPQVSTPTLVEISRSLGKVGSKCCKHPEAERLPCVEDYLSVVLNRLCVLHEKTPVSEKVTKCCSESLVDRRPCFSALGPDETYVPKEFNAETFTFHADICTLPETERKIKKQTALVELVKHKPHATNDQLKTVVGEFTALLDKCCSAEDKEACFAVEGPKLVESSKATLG
Protocol: as §6, §3

rat serum albumin [16] = molecular target: T7, rat serum albumin (rat, UniProt P02770 25-608); assay: binding ELISA on coated albumin, pH 6.0, panel 'Rat SA Binding at pH 6.0'
T7 sequence (P02770 25-608 limits assumed): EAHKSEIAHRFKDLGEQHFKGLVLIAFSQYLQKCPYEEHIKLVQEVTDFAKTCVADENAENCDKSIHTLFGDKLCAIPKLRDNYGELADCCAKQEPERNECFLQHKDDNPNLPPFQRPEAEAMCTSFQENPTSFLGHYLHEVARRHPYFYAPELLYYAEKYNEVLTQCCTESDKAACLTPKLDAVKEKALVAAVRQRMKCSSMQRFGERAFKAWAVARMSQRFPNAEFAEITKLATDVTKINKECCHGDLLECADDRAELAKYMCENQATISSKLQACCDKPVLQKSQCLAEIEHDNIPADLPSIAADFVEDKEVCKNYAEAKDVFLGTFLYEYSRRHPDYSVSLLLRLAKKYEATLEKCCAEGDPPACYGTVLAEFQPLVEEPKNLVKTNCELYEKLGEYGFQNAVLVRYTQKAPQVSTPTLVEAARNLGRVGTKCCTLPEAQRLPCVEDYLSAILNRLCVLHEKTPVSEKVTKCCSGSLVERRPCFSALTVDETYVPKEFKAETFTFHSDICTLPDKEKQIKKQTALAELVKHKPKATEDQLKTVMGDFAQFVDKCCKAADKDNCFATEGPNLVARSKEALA
Protocol: as §6, §3

cynomolgus serum albumin [17] = molecular target: T4, cynomolgus serum albumin; assay: BLI (Octet), biotinylated albumin on SA sensor, pH 6.0
Outline: as §5

human serum albumin [18] = molecular target: T5, human serum albumin; assay: as above
Outline: as §5

mouse serum albumin [19] = molecular target: T3, mouse serum albumin; assay: as above
Outline: as §5

cynomolgus serum albumin [20] = molecular target: T4, cynomolgus serum albumin; assay: binding ELISA on coated albumin, pH 6.0, panel 'CSA Binding at pH 6.0'
Protocol: as §6, §3

human serum albumin [21] = molecular target: T5, human serum albumin; assay: binding ELISA on coated albumin, pH 6.0, panel 'HSA Binding at pH 6.0'
Protocol: as §6, §3

equine serum albumin = equine serum albumin (equine, UniProt P35747 25-607); assay: binding ELISA on coated albumin, pH 7.4, panel 'Equine SA Binding at pH 7.4' (Table 6 gives NA for this pair)
Chain of equine serum albumin (P35747 25-607 limits assumed): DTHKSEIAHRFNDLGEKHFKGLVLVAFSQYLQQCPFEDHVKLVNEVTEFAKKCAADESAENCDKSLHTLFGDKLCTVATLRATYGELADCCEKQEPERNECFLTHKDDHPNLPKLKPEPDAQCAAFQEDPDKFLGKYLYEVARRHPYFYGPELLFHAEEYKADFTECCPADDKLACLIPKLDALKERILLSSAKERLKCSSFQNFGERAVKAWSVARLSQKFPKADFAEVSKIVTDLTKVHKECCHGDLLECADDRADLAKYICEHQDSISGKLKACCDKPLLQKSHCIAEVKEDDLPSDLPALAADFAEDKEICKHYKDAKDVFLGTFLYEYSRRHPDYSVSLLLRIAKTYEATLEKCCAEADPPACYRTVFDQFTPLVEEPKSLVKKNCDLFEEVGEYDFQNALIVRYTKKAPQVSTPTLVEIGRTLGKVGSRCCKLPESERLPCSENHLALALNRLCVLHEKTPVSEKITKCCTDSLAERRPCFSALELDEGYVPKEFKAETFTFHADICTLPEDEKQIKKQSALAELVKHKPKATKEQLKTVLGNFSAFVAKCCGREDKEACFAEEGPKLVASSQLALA
Protocol: as §6, §3

cynomolgus serum albumin [22] = molecular target: T4, cynomolgus serum albumin; assay: binding ELISA, coated albumin, pH 7.4
Protocol: as §6, §3

porcine serum albumin = porcine serum albumin (porcine, UniProt P08835 25-607); assay: binding ELISA, coated albumin, pH 7.4
Chain of porcine serum albumin (P08835 25-607 limits assumed): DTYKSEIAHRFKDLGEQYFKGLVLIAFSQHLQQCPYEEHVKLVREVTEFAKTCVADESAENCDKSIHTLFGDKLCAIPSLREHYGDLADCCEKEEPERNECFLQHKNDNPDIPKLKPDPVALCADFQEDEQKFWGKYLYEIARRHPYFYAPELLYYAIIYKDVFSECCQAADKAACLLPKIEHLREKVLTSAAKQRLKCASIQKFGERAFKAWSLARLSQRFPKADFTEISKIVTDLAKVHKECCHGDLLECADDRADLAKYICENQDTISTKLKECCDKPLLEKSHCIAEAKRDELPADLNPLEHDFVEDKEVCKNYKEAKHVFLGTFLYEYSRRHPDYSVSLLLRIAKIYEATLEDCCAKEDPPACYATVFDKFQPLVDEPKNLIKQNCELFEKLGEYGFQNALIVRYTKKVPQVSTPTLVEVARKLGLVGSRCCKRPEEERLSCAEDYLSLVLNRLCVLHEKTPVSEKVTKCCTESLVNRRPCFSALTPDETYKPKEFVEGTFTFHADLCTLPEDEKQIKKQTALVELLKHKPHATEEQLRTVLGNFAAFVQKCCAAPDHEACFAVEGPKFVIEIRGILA
Protocol: as §6, §3

rat serum albumin [23] = molecular target: T7, rat serum albumin; assay: binding ELISA, coated albumin, pH 7.4
Protocol: as §6, §3

human serum albumin [24] = molecular target: T5, human serum albumin; assay: binding ELISA, coated albumin, pH 7.4
Protocol: as §6, §3

human serum albumin [25] = molecular target: T5, human serum albumin; assay: Biacore, immobilised HSA, pH 7.4
Protocol: as §7

human serum albumin [26] = molecular target: T5, human serum albumin; assay: SPR (Biacore), immobilised HSA, pH 7.4
Protocol: as §7

T1 sequence (Q9EP73 19-238 limits assumed): as the sequence (Q9EP73 19-238 limits assumed) above

B1: AVA04-182 XT20 (designed binder)
chain: MIPRGLSEAKPATPEIQEIVDKVKPQLEEKTNETYGKLEAVQYKTQVLAFALPEFEYMSTNYYIKVRAGDNKYMHLKVFNGPPMIRRKNEVADRVLTGYQVDKNKDDELTGFAEAAAKEAAAKEAAAKEAAAKEAAAKEAAAKMIPRGLSEAKPATPEIQEIVDKVKPQLEEKTNETYGKLEAVQYKTQVLAFALPEFEYMSTNYYIKVRAGDNKYMHLKVFNGPPMIRRKNEVADRVLTGYQVDKNKDDELTGFAEAAAKEAAAKEAAAKEAAAKEAAAKEAAAKMIPRGLSEAKPATPEIQEIVDKVKPQLEEKTNETYGKLEAVQYKTQVLANFFQRRWPGSTNYYIKVRAGDNKYMHLKVFNGPWKFRNTDRGADRVLTGYQVDKNKDDELTGFHHHHHH
koff [1]: 0.0025 s⁻¹
kon [1]: 2.76e+07 M⁻¹ s⁻¹
Kd [2]: 0.0906 nM
IC50 (mPD-L1): 135 nM
binding result (mouse serum albumin [3]): binds

B2: HSA-20 (designed binder)
chain: MIPRGLSEAKPATPEIQEIVDKVKPQLEEKTNETYGKLEAVQYKTQVLAGYWAAKWPGSTNYYIKVRAGDNKYMHLKVFNGPFPNTSYDLQADRVLTGYQVDKNKDDELTGFHHHHHH
koff (cynomolgus serum albumin [4]): 0.00611 s⁻¹
kon (cynomolgus serum albumin [4]): 45700 M⁻¹ s⁻¹
koff (human serum albumin [5]): 0.00501 s⁻¹
kon (human serum albumin [5]): 214000 M⁻¹ s⁻¹
koff (mouse serum albumin [6]): 0.0596 s⁻¹
kon (mouse serum albumin [6]): 117000 M⁻¹ s⁻¹
Kd (cynomolgus serum albumin [7]): 213 nM
Kd (human serum albumin [8]): 40.5 nM
Kd (mouse serum albumin [9]): 622 nM
koff (cynomolgus serum albumin [10]): 0.0148 s⁻¹
kon (cynomolgus serum albumin [10]): 69600 M⁻¹ s⁻¹
koff (human serum albumin [11]): 0.00517 s⁻¹
kon (human serum albumin [11]): 128000 M⁻¹ s⁻¹
koff (mouse serum albumin [12]): 0.0509 s⁻¹
kon (mouse serum albumin [12]): 81800 M⁻¹ s⁻¹
EC50 (read off the curve) (canine serum albumin): ~20 nM
binding result (recombinant FcRn): no binding
Kd (cynomolgus serum albumin [13]): 419 nM
koff (cynomolgus serum albumin [13]): 0.0199 s⁻¹
kon (cynomolgus serum albumin [13]): 47600 M⁻¹ s⁻¹
Kd (human serum albumin [14]): 350 nM
koff (human serum albumin [14]): 0.0183 s⁻¹
kon (human serum albumin [14]): 52200 M⁻¹ s⁻¹
Kd (mouse serum albumin [15]): 855 nM
koff (mouse serum albumin [15]): 0.0981 s⁻¹
kon (mouse serum albumin [15]): 115000 M⁻¹ s⁻¹
binding result (rabbit serum albumin): binds
EC50 (read off the curve) (rat serum albumin [16]): ~1 nM
Kd (cynomolgus serum albumin [17]): 133 nM
Kd (human serum albumin [18]): 23.4 nM
Kd (mouse serum albumin [19]): 511 nM
EC50 (read off the curve) (cynomolgus serum albumin [20]): ~20 nM
EC50 (read off the curve) (human serum albumin [21]): ~7 nM
binding result (equine serum albumin): binds
EC50 (cynomolgus serum albumin [22]): 9.55 nM
EC50 (porcine serum albumin): 894 nM
EC50 (rat serum albumin [23]): 16.1 nM
EC50 (human serum albumin [24]): 18.9 nM

B3: HSA-41 CQ (designed binder)
chain: MIPRGLSEAKPATPEIQEIVDKVKPQLEEKTNETYGKLEAVQYKTQVLANFFQRRWPGSTNYYIKVRAGDNKYMHLKVFNGPWKFRNTDRGADRVLTGYQVDKNKDDELTGFAAAGGRAEQKLISEEDLGCAENLYFQGGAAGHHHHHH
notes: Purified in the presence of 5 mM TCEP; also called HSA-41 free C-terminal cysteine format (CQ); HAS-41 CQ
Kd (human serum albumin [25]): 3.21 nM
koff (human serum albumin [25]): 0.00663 s⁻¹
kon (human serum albumin [25]): 2.07e+06 M⁻¹ s⁻¹
Kd (human serum albumin [26]): ~3 nM

From US20230272011A1 (AVACTA LIFE SCIENCES, published 2023)
